Test results reported in paper PMC12136491, “Establishment of an efficient one-step enzymatic synthesis of cyclic-2,3-diphosphoglycerate” (Frontiers in Microbiology, 2025).
Several values for one entry are separate records, joined by “and”; a condition that tells them apart may be missing. Identical values can stand only once.

Target: the molecule itself
Experiment: SEC; native molecular mass; Superose Increase 10/300 column, 50 mM MES/KOH (pH 6.5), 400 mM KCl, flow rate 0.5 mL/min, 5 mg of protein loaded

B1: cyclic-2,3-diphosphoglycerate synthetase from Methanothermus fervidus, recombinant, without affinity tag (enzyme, UniProt O93732 1-460, looked up)
chain: MGETKKMICLVDGEHYFPVVKDSIEILDDLEHIDVVAVVFIGGTEKLQIEDPKEYSEKLGKPVFFGPDPKKIPYDVIKKCVKKYNADIVMDLSDEPVVDYTKRFRIASIVLKEGAVYQGADFKFEPLTEYDVLEKPSIKIIGTGKRIGKTAVSAYAARVIHKHKYNPCVVAMGRGGPREPEIVEGNKIEITAEYLLEQADKGVHAASDHWEDALMSRILTVGCRRCGGGMLGDTFITNVKRGAEIANKLDSDFVIMEGSGAAIPPVKTNRQIVTVGANQPMININNFFGPFRIGLADLVIITMCEEPMATTEKIKKVEKFIKEINPSANVIPTVFRPKPVGNVEGKKVLFATTAPKVVVGKLVNYLESKYGCDVVGVTPHLSNRPLLRRDLKKYINKADLMLTELKAAAVDVATRVAIEAGLDVVYCDNIPVVIDESYGNIDDAIIEVVEMAIDDFKNNR
notes: cyclic 2,3-diphosphoglycerate synthetase (cdpgs gene, 1,383 bp) of Methanothermus fervidus, Mfer_0077, CAA70986; calculated molecular mass 50.7 kDa; codon-optimized gene, no tag; also called MfcDPGS; cDPGS
stoichiometry N: 2 and 4
